# Laboratory results: the nanobody polyreactivity screen of Harvey et al. (2022)
# Assay: yeast display, Sf9 membrane polyspecificity reagent, FACS + sequencing; frameworks hold sequencing errors
# In short: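 Sorting gates, low and high (top ~1%), were placed on anti-HA fluorescence to track expression and on streptavidin fluorescence to track reagent binding. A clone's polyreactivity label is taken from the gate it came out of. The reagent was 10% biotinylated, detergent-solubilized Sf9 membrane, applied for 1 hour at 4 °C to galactose-induced yeast display cells.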
row,Sequence,polyreactivity (PSR sort gate)
1,QVQLVESGGGLVQAGGSLRISCAASGLIFYGYVMGWYRQAPGKEREFVAAITLSGGRTYYADSVKGRFTISRDNAKNTVYLQMNSLKPEDTAVYYCAARGPFRPYGAVGRQYDYWGQGTQVTVSS,high polyreactivity
2,QVQLVESGGGLVQAGGSLRISCAASGLTFADNAMGWYRQAPGKERELVAAISRSGSRTYYADSVKGRFTISRDNAKNTVYLQMNSLKPEDTAVYYCNAVWWYYRVFDYWGQCTQVTVSS,high polyreactivity
3,QVQLVESGGGLVQAGGSLRISCAASGLTFTDYAIGWYRQAPGKERELVAGIWDGGSTYYADSVKGRFTISRDNAKNTVYLQMNSLKAEDTAVYSCAVRTSRLLREFGYSYWGQGTQVTVSS,high polyreactivity
4,QVQLVESGGGLVQAGGSLRISCAASGLTFTSNVMGWYRQAPGKERELVAAISSGGSTYYADSVKGRFTISRDNAKNTVYLQMNSLKPEDTAVYYCNTKLWGQYDYWGQGTQVTVSS,low polyreactivity
5,QVQLVESGGGLVQAGGSLRISCAASGLTFYYNAMGWYRQAPGKDRELVATITWRGGRTYYADSVKGRFTISRDNAKNTVYLQMNCLKPEDTAVYYCAAGYFSQRLYLWFGYWGQGTQVTVSS,high polyreactivity
6,QVQLVESGGGLVQAGGSLRISCAASGNIFYRNGMGWYRQAPGKEREFVAAISRRGGSTYYADSVKGRFTISRDNAKNTVYLQMNSLKTEDTAVYYCATRYWPTNKGEYWGQGTQLTVSS,high polyreactivity
7,QVQLVESGGGLVQAGGSLRISCAASGNTFEHNAMGWYRQAPGKERELVAVISKSGGRTYYADSVKGRFTISRDNAKNTVYLQMNSLKPEDTAVYYCAKRSPFITWNGISYVEYDYWGPGTQVTVSS,low polyreactivity
8,QVQLVESGGGLVQAGGSLRISCAASGNTFGDYAMGWYRQAPGKERELVAAISRSGGSTSYADSVKGRFTISRDNAKNTVYLQMNSLKPEDTAVYYCAGYWQRFGYDYWGQGTLVTVSS,low polyreactivity
9,QVQLVESGGGLVQAGGSLRISCAASGRICIYYTMGWYRQAPGKDREFVAAITYSGGSTRYADSVKGRFTISRDNAKNTVYFQMNSLKTEVTAVYYCAAKFSVRRGFDYWGQGTQVTVSS,low polyreactivity
10,QVQLVESGGGLVQAGGSLRISCAASGRIFDYYAMGWYRQAPGKERELVAAISYSGGSTHYADSVKGRFTISRDNAKNTVYLQMNSLKPEDTAVYYCAGWAWSGVEYDYWGQGTQVTVSS,low polyreactivity
11,QVQLVESGGGLVQAGGSLRISCAASGRIFFTYVKGWYRQAPGKERELVATIRVSGGSTYYADSVKGRYTISRDNAKKTVYLQMNSLKPEDTAVYYCAASGAWWSLHYAGDFWGQGTQVTVSS,high polyreactivity
12,QVQLVESGGGLVQAGGSLRISCAASGRIFGYYGMGWSRQAPGKERELVAAITSNAGRTYYADSVKGRFTISRDNSKNTVYLQMNSLKPEDTAVYYCAATSKGSYGRQGYDYWGQGTQVTVSS,low polyreactivity
13,QVQLVESGGGLVQAGGSLRISCAASGRIFIYNAMGWYRQAPGKERELVAAINRSGVSTHYADSVKGRFTISRDNAKNTVYLQMNSLIPEDTAVYYCARTVYGARSYDYWGQGTQVTVSS,low polyreactivity
14,QVQLVESGGGLVQAGGSLRISCAASGRIFLRNDMGWYRQAPGKERELVAGISSDGSTYYADSVKGRFTISRDNAKNTVYLQMNSLKPEDTAVYYCAAERWGNPTDYQFWRPYDYWGQGTQVTVSS,low polyreactivity
15,QVQLVESGGGLVQAGGSLRISCAASGRIFQHYAMGWYRQAPGKERELVAAISWRGGSTYYADSVKGRFTISRDNAKNTVFLLMNSLKPEDTAVYYCAAGYRGRIPGFDYWGQGTQVTVSS,high polyreactivity
16,QVQLVESGGGLVQAGGSLRISCAASGRIFSYNAMGWYRQAPGKERELVAAITTGGSTYYADSVKGRFTISRDNAKNTVYLQMNSLKPEDTAVYYSIKLGYYYDRRYDYWGQGTQVNVSS,high polyreactivity
17,QVQLVESGGGLVQAGGSLRISCAASGRTFAFYAMGRYRQAPGKERELVACISSSGDRTYYADSVKGRFTISRDNAKNTVYLQMNSLKPEDTAVYYCAARWRYTYYYWGQGTQVTVSS,high polyreactivity
18,QVQLVESGGGLVQAGGSLRISCAASGRTFPVNAMGWYRQAPGKERELVAAITWSGDSTYYADSVKGRFTISCDNAKNTVYLQMNSLKPEDTAVYYCAAAYRYGTLYYYWGQGTQVTVSS,low polyreactivity
19,QVQLVESGGGLVQAGGSLRISCAASGRTFPWYAMGWYRPAPGKERELVADITWSGGSTYYADSVKGRFTISRDNAKNTVYLQMNSLKPEDTAVYYCATRVLFWYRKYPGRPLTKYDYWGQGTQVTVSS,high polyreactivity
20,QVQLVESGGGLVQAGGSLRISCAASGRTFRFYVMGWYRKAPGKERELVAAISRGGGSTYYADSVKGRFTISRDNAKNTVYLQMNSLKPEDTAVYYCNAVTSGKKYVADYNYWGQGTQVTVSS,high polyreactivity

row,Sequence,polyreactivity (PSR sort gate)
1,QVQLVESGGGLVQAGGSLRISCAASGRTFRTYAMGWYRQAPGKERELVAAISYSDGSTYYADSVKGRFTISRDNAKNTVYLQMNSLKPEDTAVYYCAIEYEDPYYIRYQVGYDFDYWGQGTQVTVSS,low polyreactivity
2,QVQLVESGGGLVQAGGSLRISCAASGRTFRWYAMGWYRQAPGKERELVAAISWNGGSTYYADSVKGRFTISRDNAKNTVYLQMNSLKPEDTAVYYCAVKAGPSRPYYSWGQGTQVTVSS,high polyreactivity
3,QVQLVESGGGLVQAGGSLRISCAASGRTFYPYAMGWYRQAPGKEREFVAAITLTGDSTYYADSVKGRFTISRDNAKNTVYLQMNSLKPEDTAVYYCNAGVGARESDYWGQGTQLTVSS,low polyreactivity
4,QVQLVESGGGLVQAGGSLRISCAASGRTFYWYAMGWYRQAPGKERELVAAISAGGGRTYCADSVKGRFTISRDNAKNTVYLQMNSLKPEDTAVYYCAADFQRGAKYTYDFWGQGTQVTVSS,high polyreactivity
5,QVQLVESGGGLVQAGGSLRISCAASGSICNINAMGWYRQAPGKERELVAPISQSDGSTYYADSVKGRFTISRDNAKNTVYLQMNSLKPEDTAVYYCSADAYVLFYGDWYEFDYWGQGTQVTVSS,high polyreactivity
6,QVQLVESGGGLVQAGGSLRISCAASGSIFAWNAMGWYRQAPGKERELVAAISRSGGRTYYADSVKGRFTISRDNAKNTVYLQMNSLKPEDTAVYYCNAYGLRWASRLGYDYWGQGTQVTVSS,high polyreactivity
7,QVQLVESGGGLVQAGGSLRISCAASGSIFEQYAMAWYRQAPGKERELVAAISKRGTSTYYAVSVKGRFTISRDNAKNTVYLQMNCLKPEDTAVYYCAATNRWYYRDAAAVYAFGYWGQGTQVTVSS,high polyreactivity
8,QVQLVESGGGLVQAGGSLRISCAASGSIFGVYAMGWYRQAPGKERELVAAIRSGGRTYYADSVKGRFTISRDNAKNTVYLQMNSLKPEDTAVYYCNAAFSSRVGRVQFYDYDYWGQGTQVTVSW,high polyreactivity
9,QVQLVESGGGLVQAGGSLRISCAASGSIFLSNMGWYRQAPGNERELVAAITIGGSTDYADSVKGRFTISRDNAKNTVYLQMNSLKPEDTAVYYCNADNPYSDGADSLGNYWGQGTQVTVSS,low polyreactivity
10,QVQLVESGGGLVQAGGSLRISCAASGSIFNIYAMGWSRQAPGKERELVATITGIADSTYYADSVKGRFTISRDNAKNTVNFQMNSLKPEDTAVYYCAARRTRVTGRYSVYAFDYWGQGTQVTVSS,low polyreactivity
11,QVQLVESGGGLVQAGGSLRISCAASGSIFRSNAMGWYRQAPGKEREMVAAISSSGGSTYYADSVKGRFTISRDNAKNTVYFQMNSLKPEDTAVYYCAAEVLSSDLFRPDSIVDYWGQGTQVNVSS,low polyreactivity
12,QVQLVESGGGLVQAGGSLRISCAASGSIFYYYDMGWYRQAPGKERELVASISRGGRTYYADSVKGRFTISRDNAMNTVYLQMNSLKPEDTAVYYCAAGYYIRYYGIMDYWGQGTQVTVSS,high polyreactivity
13,QVQLVESGGGLVQAGGSLRISCAASGSILVFYAMGWYRQAPGKESELVATITGSVGRTSYADSVKGRFTISRDNAKNTVYLQMNSLIPEDTAVYYCAADADTDVFYILQEYDYWGQGTQVTVSS,low polyreactivity
14,QVQLVESGGGLVQAGGSLRISCAASGSNFSYYAMGWYRQAPGKEREFVAAISWSGGSTYYADSVKGRFTISRDNAKNTVYLQMNSLKPEDTAVYYCAAELSLSWLVPEVPYYYWGQGTQVTGSS,low polyreactivity
15,QVQLVESGGGLVQAGGSLRISCAASGSTFANYSMGWYRQAPGKERELVAVISVRGGSTYYADSVKGRFTISRDNAKNTVYLQMNSLKPEDTAVYYCAADASGPRRYDSWGQGTQVTVSS,high polyreactivity
16,QVQLVESGGGLVQAGGSLRISCAASGSTFDDNAMGWYRQAPGKERELVASITYRGGSTYYADSVKGRFTISRDNAKNTVYLQMNSLKPEDTAVYYCAKGHYFKYDYWGQGTQVTVSS,low polyreactivity
17,QVQLVESGGGLVQAGGSLRISCAASGSTFDIYAMGWYRQAPGKERELVAAISNSGDTYYADSVKGRFTISRDNAKNTVYLQMNSLKPEDTAVYYCNADFHDWFDYWGQGTQVTVSS,high polyreactivity
18,QVQLVESGGGLVQAGGSLRISCAASGSTFGPYAMGWYRPAPGKERELVAAITKSGGRTYYADSVKGRFTISRDNAKNTVYLQMNSLKPEDTAVYYCAAYGSVGLEYWGQGTQVTVSS,high polyreactivity
19,QVQLVESGGGLVQAGGSLRISCAASGSTFQYYAMGWYRPAPGKETELVAAISDRDGGTFYADSVKGRFTISRDNAKNTVYLQMNSLKPEDTAVYYCANDAVGFRLDDNGYWGQGTQVTVSS,low polyreactivity
20,QVQLVESGGGLVQAGGSLRISCAASGSTFSNYAMGWYRQAPGKERELVAAINSGGRTKYADSVKGRFTISRDNAKNSVYLQMNSLKPEDTAVYYCAKRIENFSGSLAGRWYDYWGQGTQVTVSS,high polyreactivity
